One protein from PMC6826779, “Bis-allylic Deuterated DHA Alleviates Oxidative Stress in Retinal Epithelial Cells” (Antioxidants, 2019) can be followed below.

Substrate in series [1]: CC/C=C\C/C=C\C/C=C\C/C=C\C/C=C\C/C=C\CCC(=O)O
As to the kind of experiment: Kinetics parameters of 15s-LOX (UV 270 nm, Michaelis-Menten). In kind it is biochemical, Glycine max (soybean). The settings on record: other: 15s-LOX, substrate 0.02-0.2 mM, borate buffer pH 9, 20 °C. As to the method: (§1) The activity of 15-sLOX was monitored on a Beckman Coulter DU730 Life Sciences UV-visible spectrometer at a wavelength of 270 nm monitoring the conjugated triene structure in the dihydroxylation products. For the measurements a reaction mixture of DHA or deuterated DHA (0.02 mM; 0.04 mM; 0.1 mM and 0.2 mM) was prepared in 750 µL sodium borate buffer (50 mM, pH 9) by ultrasonification for 10 s. The reaction was subsequently initiated by the addition of 10 µL 15-sLOX (4 mg/mL) to make a total volume of 760 µL in a Hellma CEL2056 quartz cuvette with 1 cm path length (20 °C). The initial reaction rates (V(0)), derived from the recorded UV-absorbance using the law of Lambert-Beer (molar extinction coefficient = 40,000), were plotted against the respective DHA concentrations and fitted to Michaelis-Menten kinetics in GraphPad Prism 7.0. All V(0) values were determined in triplicate and the average of three independent experiments was plotted against the substrate concentrations to yield Michaelis-Menten kinetics.

Substrate in series [2]: CCC=CCC=CCC=CCC=CCC=CCC=CCCC(=O)O
Described as above. In kind it is biochemical, Glycine max (soybean). The following applies: other: 15s-LOX, substrate 0.02-0.2 mM, borate buffer pH 9, 20 °C. As to the method:
as §1

B1: 15-sLOX (Glycine max) (protein)
chain: MFSAGHKIKGTVVLMPKNELEVNPDGSAVDNLNAFLGRSVSLQLISATKADAHGKGKVGKDTFLEGINTSLPTLGAGESAFNIHFEWDGSMGIPGAFYIKNYMQVEFFLKSLTLEAISNQGTIRFVCNSWVYNTKLYKSVRIFFANHTYVPSETPAPLVSYREEELKSLRGNGTGERKEYDRIYDYDVYNDLGNPDKSEKLARPVLGGSSTFPYPRRGRTGRGPTVTDPNTEKQGEVFYVPRDENLGHLKSKDALEIGTKSLSQIVQPAFESAFDLKSTPIEFHSFQDVHDLYEGGIKLPRDVISTIIPLPVIKELYRTDGQHILKFPQPHVVQVSQSAWMTDEEFAREMIAGVNPCVIRGLEEFPPKSNLDPAIYGDQSSKITADSLDLDGYTMDEALGSRRLFMLDYHDIFMPYVRQINQLNSAKTYATRTILFLREDGTLKPVAIELSLPHSAGDLSAAVSQVVLPAKEGVESTIWLLAKAYVIVNDSCYHQLMSHWLNTHAAMEPFVIATHRHLSVLHPIYKLLTPHYRNNMNINALARQSLINANGIIETTFLPSKYSVEMSSAVYKNWVFTDQALPADLIKRGVAIKDPSTPHGVRLLIEDYPYAADGLEIWAAIKTWVQEYVPLYYARDDDVKNDSELQHWWKEAVEKGHGDLKDKPWWPKLQTLEDLVEVCLIIIWIASALHAAVNFGQYPYGGLIMNRPTASRRLLPEKGTPEYEEMINNHEKAYLRTITSKLPTLISLSVIEILSTHASDEVYLGQRDNPHWTSDSKALQAFQKFGNKLKEIEEKLVRRNNDPSLQGNRLGPVQLPYTLLYPSSEEGLTFRGIPNSISI
As usually defined, the Km is the concentration of substrate that gives half-maximal velocity. With B1, the Km in series [1] (substrate D2-DHA) was determined as 36.3 µM; in series [1] (substrate Natural DHA), 68 µM; in series [2], 57.4 µM.
